Measured values: US5273966

Columns and labels:
[1] = biological target: high molecular weight binding protein (150K) in normal human serum (human); assay: radiolabelled IGF-1 incubated with serum; area under the curves of the high and low molecular weight peaks
[2] = biological target: high molecular weight binding protein (150K) in normal rat serum (rat); assay: as above

percent bound to the large molecular weight form compared to the authentic IGF-1 [1]: 50 to 60%
percent bound to the large molecular weight form compared to the authentic IGF-1 [2]: 50 to 60%
Substance: O-glycosylated IGF-1 (ligand)
